For three molecules, oral wound healing, keratinocyte migration and keratinocyte proliferation results are on record in patent US12221463B2, “Method of promoting wound healing by inhibiting CCR3” (The Board of Regents of the University of Oklahoma, priority 2020, dated 2025).

Experiment [1] deals with T1, CCR3 (Homo sapiens, UniProt P51677).
T1 sequence (P51677 1-355): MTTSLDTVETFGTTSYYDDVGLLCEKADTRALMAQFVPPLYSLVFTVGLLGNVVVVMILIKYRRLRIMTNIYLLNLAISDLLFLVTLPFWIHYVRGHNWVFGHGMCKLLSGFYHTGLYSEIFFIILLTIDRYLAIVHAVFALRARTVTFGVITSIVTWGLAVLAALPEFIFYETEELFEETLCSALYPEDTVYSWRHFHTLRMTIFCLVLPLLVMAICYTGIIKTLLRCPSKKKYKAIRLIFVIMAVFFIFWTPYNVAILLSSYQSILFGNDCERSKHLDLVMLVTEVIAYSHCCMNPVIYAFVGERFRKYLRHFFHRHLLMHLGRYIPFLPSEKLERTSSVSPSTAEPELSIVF
The following applies: CCR3 agonism; Buskermolen et al. 2017; cited from earlier work.

Experiment [2] has as its system HEKn. The experiment is described as follows: Cell exclusion zone assay (in vitro wound closure / migration). The following applies: 16 hours. It counts as cell-based, human. The protocol:
HEKn were seeded (2.0×10^4 per well) around the barrier of a collagen I coated Oris Cell Migration Assay 96-well plate (Platypus, West Lebanon, NH). Cells were incubated overnight to allow for cell attachment. After incubation, the circular barriers were removed (except for reference wells), and the cells were treated with either anti-CCR3 (R&D Systems, Minneapolis, MN) (2 ug/mL), IgG control (R&D Systems, Minneapolis, MN; 2 μg/mL), CCL24 (Biolegend, […], CA), CCL26 (Biolegend, San Jose, CA), or IGF (ThermoFisher, Waltham, MA; 10 ng/mL) for 16 hours. At the end of the experiment, Calcein-AM (Life Technologies, Carlsbad, CA) (2 μM) was added prior to obtaining images with a Nikon TE2000-E inverted epi-fluorescence microscope (2× objective). ImageJ (NIH) was utilized to analyze the images.

In experiment [3] the test system is HEKn. The experiment is described as follows: Proliferation assay (PrestoBlue). The class given is cell-based, human. The following applies: 16 hours. Here is the method: Cells were plated on a collagen I coated 96-well plate (Corning, New York, NY) at a density of 4×10^3 cells per well, and then allowed to attach overnight. The next day, cells were treated with CCL24 (Biolegend, San Diego, CA), CCL26 (Biolegend, San Diego, CA), or IGF (ThermoFisher, Waltham, MA) for 16 hours. To assess viability, PrestoBlue (Life Technologies, Carlsbad, CA) was added according to manufacturer's protocol, and results were obtained on a microplate reader (BioTek, Winooski, VT).

The subject of experiment [4] is keratinocytes. The following applies: Kroeze et al. 2012, type IV collagen; cited from earlier work.

For “CCL28: chemokine used for CCR3 agonism in cited oral wound healing study”, the oral wound healing entry in experiment [1] was “promote”.

B1: CCL24: CCR3-specific ligand Chemokine (C-C motif) ligand 24 (eotaxin-2), Biolegend (protein)
chain: VVIPSPCCMFFVSKRIPENRVVSYQLSSRSTCLKAGVIFTTKKGQQFCGDPKQEWVQRYMKNLDAKQKKASPRARAVA
For B1, the keratinocyte migration entry in experiment [2] was “did not significantly alter”. Besides, the keratinocyte proliferation result in experiment [3] (20 ng/mL) was “significantly reduced”; in experiment [3] (50 ng/mL) it was “significantly reduced”; in experiment [3] (100 ng/mL), “significantly reduced”; in experiment [4], “promoted”.

B2: CCL26: CCR3-specific ligand Chemokine (C-C motif) ligand 26 (eotaxin-3), Biolegend (protein)
chain: TRGSDISKTCCFQYSHKPLPWTWVRSYEFTSNSCSQRAVIFTTKRGKKVCTHPRKKWVQKYISLLKTPKQL
In the case of B2, the keratinocyte migration result in experiment [2] is reported as “did not significantly alter”. Also, the keratinocyte proliferation result in experiment [3] (20 ng/mL), in experiment [3] (50 ng/mL) and in experiment [3] (100 ng/mL) was “significantly reduced” each time.
